One experiment concerns the target T1, protein S (Homo sapiens, UniProt P07225).
T1 sequence (P07225 42-676): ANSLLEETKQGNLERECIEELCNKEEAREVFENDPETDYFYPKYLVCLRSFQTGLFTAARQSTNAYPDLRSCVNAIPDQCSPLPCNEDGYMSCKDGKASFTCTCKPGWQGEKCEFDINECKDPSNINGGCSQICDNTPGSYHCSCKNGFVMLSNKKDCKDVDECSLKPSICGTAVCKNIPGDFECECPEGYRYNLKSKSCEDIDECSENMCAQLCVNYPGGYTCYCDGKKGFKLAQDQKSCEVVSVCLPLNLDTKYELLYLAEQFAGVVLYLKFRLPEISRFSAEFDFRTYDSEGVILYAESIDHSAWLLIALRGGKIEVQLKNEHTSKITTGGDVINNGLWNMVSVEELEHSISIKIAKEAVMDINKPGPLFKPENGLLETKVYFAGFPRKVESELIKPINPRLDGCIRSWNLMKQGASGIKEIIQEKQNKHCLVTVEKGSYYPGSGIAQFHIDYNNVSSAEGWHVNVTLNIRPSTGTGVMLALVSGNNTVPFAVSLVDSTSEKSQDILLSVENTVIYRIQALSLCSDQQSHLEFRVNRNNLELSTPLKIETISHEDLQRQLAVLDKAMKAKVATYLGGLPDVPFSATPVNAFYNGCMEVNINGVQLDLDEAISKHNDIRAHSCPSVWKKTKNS
Description: Binding of protein S to the binding site on C4BPβ in the presence of physiological calcium. Here is the method:
Even though it is possible to design C4BP-like molecules which could be very efficient as catching ligands in assays for free protein S, suitable embodiments of the invention are based on use of the entire C4BP molecule or, rather, C4BP species comprising the β-chain, i.e. C4BPβ, as ligands in such assays. Since the binding site on C4BPβ binds protein S with very high affinity (KD=0.1 nM) in the presence of physiological calcium concentrations, the association rate constant in the presence of calcium ions being high (almost 10^5 M^−1 s−^1) and the dissociation rate constant being low (approximately 5×10^−4 s−^1), C4BPβ (containing an unoccupied protein S binding site on the β-chain) is a highly specific and efficient ligand for free protein S and is able to specifically bind to free protein S in a solution containing both free protein S and PS:C4BP complexes.

The next experiment addresses T2, free protein S (Homo sapiens, UniProt P07225).
T2 construct: from tissue; host or cells: human plasma
T2 sequence (P07225 42-676): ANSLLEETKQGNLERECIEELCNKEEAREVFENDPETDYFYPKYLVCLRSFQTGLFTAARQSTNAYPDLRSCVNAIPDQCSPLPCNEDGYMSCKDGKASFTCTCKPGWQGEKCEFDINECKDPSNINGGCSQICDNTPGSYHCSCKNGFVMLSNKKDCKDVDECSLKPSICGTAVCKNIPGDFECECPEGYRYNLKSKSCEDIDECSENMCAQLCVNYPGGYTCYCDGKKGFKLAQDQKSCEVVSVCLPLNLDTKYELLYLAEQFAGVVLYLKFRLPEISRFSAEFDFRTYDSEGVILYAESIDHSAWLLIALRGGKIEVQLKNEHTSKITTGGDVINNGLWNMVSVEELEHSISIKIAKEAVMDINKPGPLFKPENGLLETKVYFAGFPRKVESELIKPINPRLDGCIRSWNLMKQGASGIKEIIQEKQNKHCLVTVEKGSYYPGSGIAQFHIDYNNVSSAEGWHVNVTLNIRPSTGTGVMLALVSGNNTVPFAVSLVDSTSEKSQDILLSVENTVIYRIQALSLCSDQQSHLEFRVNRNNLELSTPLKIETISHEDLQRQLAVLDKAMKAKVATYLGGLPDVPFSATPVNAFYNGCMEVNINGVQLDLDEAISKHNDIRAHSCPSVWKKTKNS
Description: Addition of C4BP to human plasma, free protein S measured with the assay of Example 2. The class given is binding. The following applies: two-fold molar excess of C4BP compared to free protein S, 1 hour at 37° C. Here is the method: Assay procedure: Aliquots (50 μl) of the sample to be analyzed (for patient plasma usually 1:100 dilutions of plasma, the buffer for dilution being TBS containing 1% BSA, 2 mM calciumchloride and 1 mM benzamidine) were added to the wells of C4BP-microtiter plates and incubated at room temperature for 30 minutes. The wells were then washed with TBS-wash-ing buffer and biotinylated monoclonal antibody HPS54 (diluted 1:1000, corresponding to about 0.1–1 μg/ml, in TBS containing 1% BSA, 2 mM calcium chloride) was added. Unbound HPS54 was washed away with 3×TBS-washing buffer. Peroxidase-conjugated streptavidine (from Dakopatts AS and prepared according to the manufacturers instructions and diluted 1:2500) (50 μl/well) was added and incubated 15 minutes at room temperature before unbound complexes were washed away with 3×TBS-washing buffer. Aliquots (100 μl/well) of the peroxidase substrate OPD (1,2-ortho-phenylene diamine in the form of 2 mg tablets from Dakopatts A/S) at 1.5 mg/ml in 0.1 M citric acid-phosphate buffer, pH 5.0 (prepared according to instructions from Dakopatts) was added together with H2O2 (0.015%). After exactly 5 minutes, the reaction was stopped by 100 μl/well of 1 M H2SO4 and the absorbance was measured at 490 nm.
To test the specificity of the assay for free protein S, two different experiments were performed. […]

Data on 1 molecule can be found in patent publication US7041458B2, “Methods and reagents for determining protein S” (priority 1996, dated 2006).

B1: C4BPβ: species of C4b-binding protein containing the protein S binding β-chain, isolated from human plasma (protein)
chain 1: NCGPPPTLSFAAPMDITLTETRFKTGTTLKYTCLPGYVRSHSTQTLTCNSDGEWVYNTFCIYKRCRHPGELRNGQVEIKTDLSFGSQIEFSCSEGFFLIGSTTSRCEVQDRGVGWSHPLPQCEIVKCKPPPDIRNGRHSGEENFYAYGFSVTYSCDPRFSLLGHASISCTVENETIGVWRPSPPTCEKITCRKPDVSHGEMVSGFGPIYNYKDTIVFKCQKGFVLRGSSVIHCDADSKWNPSPPACEPNSCINLPDIPHASWETYPRPTKEDVYVVGTVLRYRCHPGYKPTTDEPTTVICQKNLRWTPYQGCEALCCPEPKLNNGEITQHRKSRPANHCVYFYGDEISFSCHETSRFSAICQGDGTWSPRTPSCGDICNFPPKIAHGHYKQSSSYSFFKEEIIYECDKGYILVGQAKLSCSYSHWSAPAPQCKALCRKPELVNGRLSVDKDQYVEPENVTIQCDSGYGVVGPQSITCSGNRTWYPEVPKCEWETPEGCEQVLTGKRLMQCLPNPEDVKMALEVYKLSLEIEQLELQRDSARQSTLDKEL
chain 2: SDAEHCPELPPVDNSIFVAKEVEGQILGTYVCIKGYHLVGKKTLFCNASKEWDNTTTECRLGHCPDPVLVNGEFSSSGPVNVSDKITFMCNDHYILKGSNRSQCLEDHTWAPPFPICKSRDCDPPGNPVHGYFEGNNFTLGSTISYYCEDRYYLVGVQEQQCVDGEWSSALPVCKLIQEAPKPECEKALLAFQESKNLCEAMENFMQQLKESGMTMEELKYSLELKKAELKAKLL
With B1, in the experiment with protein S (presence of calcium ions), the association rate constant is recorded as ~10^5 M^−1 s−^1 and the dissociation rate constant entry is “approximately 5×10^−4 s−^1”. The Kd with protein S (presence of physiological calcium concentrations) is 0.1 nM. Further, in the experiment with free protein S, the “drop in free protein S” value came out at 90%.
